Assay [1] deals with T1, human DLK1 long form (isoform 1, DLK1-FL) fused to mGFP, overexpressed on HEK293T cells (human, UniProt P80370 24-383).
T1 construct: also called HEK293T DLK1 mGFP G06 (long form); DLK-FL; not shown: mGFP fluorescent protein fused to DLK1
T1 sequence: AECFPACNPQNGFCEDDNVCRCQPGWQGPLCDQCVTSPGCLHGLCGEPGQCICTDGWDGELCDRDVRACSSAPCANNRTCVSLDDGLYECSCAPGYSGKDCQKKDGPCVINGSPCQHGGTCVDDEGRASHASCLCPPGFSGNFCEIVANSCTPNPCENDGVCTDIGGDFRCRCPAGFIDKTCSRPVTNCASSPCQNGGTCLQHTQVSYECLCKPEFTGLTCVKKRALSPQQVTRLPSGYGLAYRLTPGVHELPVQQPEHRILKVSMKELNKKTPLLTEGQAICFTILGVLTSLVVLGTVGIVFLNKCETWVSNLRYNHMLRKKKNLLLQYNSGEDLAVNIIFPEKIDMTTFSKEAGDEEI
The assay can be described thus: KinExA on cells, row HEK293 DLK1-mGFP G05 Cells.

The target of assay [2] is T2, recombinant fusion protein of human DLK1 extracellular domain (ECD) and monomeric immunoglobulin Fc domain … (human, UniProt P80370 24-303).
T2 construct: also called human DLK1 ECD-mFc fusion protein; not shown: monomeric immunoglobulin Fc domain (mFc)
T2 sequence: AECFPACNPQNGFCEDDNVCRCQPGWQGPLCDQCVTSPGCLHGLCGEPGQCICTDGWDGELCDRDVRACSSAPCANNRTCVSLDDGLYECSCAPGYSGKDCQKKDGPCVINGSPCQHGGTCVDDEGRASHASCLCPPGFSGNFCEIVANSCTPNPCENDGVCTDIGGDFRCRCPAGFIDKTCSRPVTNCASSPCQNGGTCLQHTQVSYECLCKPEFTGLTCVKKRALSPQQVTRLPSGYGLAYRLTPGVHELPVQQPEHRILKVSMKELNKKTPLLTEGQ
The assay can be described thus: ELISA on recombinant DLK1 ECD-mFc.

Assay [3] concerns the target T2, recombinant fusion protein of human …. In words: Octet384 binding kinetics using recombinant protein DLK1 ECD-mFc, row Ka (1/Ms).
Assay [4] deals with either the long or short form of the human DLK1 protein (DLK1 ECD-mFc long form or short form, ELISA coat). In words: ELISA, plates coated with DLK1 ECD-mFc long form or short form, anti-human IgG Fc-HRP detection.
Assay [5] has as its target T2, recombinant fusion protein of human …. In words: Octet384 binding kinetics using recombinant protein DLK1 ECD-mFc, row Kdis (1/s).
Assay [6] shares this target. The assay can be described thus: ELISA with human DLK1 ECD-mFc fusion protein.
The target in assay [7] is T1, human DLK1 long form (isoform 1, …). In words: KinExA on cells, block Cross Reactivity to Three Tox Models - KD by KinExA (nM), row HEK293T Human DLK1mGFP G05.
In assay [8] the target is T2, recombinant fusion protein of human …. The assay can be described thus: Octet384 binding kinetics using recombinant protein DLK1 ECD-mFc.
The target in assay [9] is T3, monkey DLK1 fused to mGFP, overexpressed on HEK293T cells (monkey (crab-eating macaque), UniProt A0A2K5TMQ6 24-383).
T3 construct: whole, on cells; also called crab-eating macaque DLK1; not shown: mGFP fluorescent protein fused to DLK1
T3 sequence: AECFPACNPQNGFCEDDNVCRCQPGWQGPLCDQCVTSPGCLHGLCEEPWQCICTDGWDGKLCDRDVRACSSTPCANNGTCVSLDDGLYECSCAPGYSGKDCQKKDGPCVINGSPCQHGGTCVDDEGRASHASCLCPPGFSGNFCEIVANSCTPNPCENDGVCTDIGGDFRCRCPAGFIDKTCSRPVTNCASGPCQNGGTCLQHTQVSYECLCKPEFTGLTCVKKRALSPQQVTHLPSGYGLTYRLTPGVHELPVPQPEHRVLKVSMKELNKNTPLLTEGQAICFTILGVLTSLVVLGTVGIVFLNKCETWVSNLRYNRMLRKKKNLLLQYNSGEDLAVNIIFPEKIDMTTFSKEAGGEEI
The assay can be described thus: KinExA on cells, row HEK293T Monkey DLK1mGFP mass.

Assay [10] deals with T4, mouse DLK1 fused to mGFP, overexpressed on HEK293T cells (mouse, UniProt Q09163 24-385).
T4 construct: not shown: mGFP fluorescent protein fused to DLK1
T4 sequence: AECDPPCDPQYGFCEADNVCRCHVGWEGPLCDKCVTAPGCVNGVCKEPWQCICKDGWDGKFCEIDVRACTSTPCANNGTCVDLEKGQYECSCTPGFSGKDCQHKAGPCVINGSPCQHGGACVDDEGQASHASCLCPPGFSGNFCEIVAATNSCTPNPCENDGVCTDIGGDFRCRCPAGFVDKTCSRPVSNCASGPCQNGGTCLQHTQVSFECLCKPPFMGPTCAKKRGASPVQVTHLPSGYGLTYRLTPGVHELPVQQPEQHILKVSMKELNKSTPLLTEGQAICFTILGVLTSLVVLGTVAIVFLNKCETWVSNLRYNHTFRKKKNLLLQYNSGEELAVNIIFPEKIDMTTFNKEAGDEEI
The assay can be described thus: KinExA on cells, row HEK293T Mouse DLK1mGFP mass.

Assay [11] has as its target T1, human DLK1 long form (isoform 1, …). The assay can be described thus: KinExA on HEK293T DLK1mGFP Human Clone G06 cells detached by Versene; Error% 5.90; 95% CI not defined; equilibrium curves 400pM, 50nM.
Assay [12] deals with human DLK1 endogenously expressed on COR-L279 small cell lung carcinoma cells (human) (UniProt P80370). The assay can be described thus: flow cytometry, antibody at 20µg/ml, row CORL-279 (SCLC, DLK+); row M202 of the same block: 5,208.0.

Consider two molecules from patent publication US20250042992A1 (University of California, published 2025).

B1: humanized anti-DLK1 antibody 04-0561-F1 (IgG1) (antibody, V domains shown)
VH: QVQLQESGPGLVKPSETLSLTCTVSGFSLSIYSVHWVRQPPGKGLEWIGLIWGGGSTDYNPSLKSRVTISKDTSKNQVSLKLSSVTAADTAVYYCARKEGNYLWFAYWGQGTLVTVSS
VL: DIVMTQSPDSLAVSLGERVTMNCKSSQSLLQSSNQKNYLAWYQQKPGQPPKLLVYFASTRESGVPDRFSGSGSGTDFTLTISSVQAEDVAVYYCQQHYSIPLTFGQGTKLEIKR
Take B1: the Kd was determined as 1.11 nM in assay [1], 1.11 nM in assay [7], 0.0186 nM in assay [8] and 2.19 nM in assay [9]. Moreover, the EC50 in [2] was 0.684 nM; in assay [4], 0.81 to 0.87 nM; in assay [6], approximately 0.5 nM. The kon in assay [3] was found to be 48200 M⁻¹ s⁻¹. In addition, the off-rate constant (koff) in assay [5] was determined as 0.000898 s⁻¹.

B2: humanized anti-DLK1 antibody 04-0547-h2 (IgG1) (antibody, V domains shown)
VH: EVQLVESGGGLVQPGGSLRLSCAASGFSISDYYMAWVRQAPGKGLEWVANINYDGTNTYYADSVKGRFTISRDNSKNTLYLQMNSLRAEDTAVYYCVRSYYYYGMEYWGQGTTVTVSS
VL: DIQMTQSPSSLSASVGDRVTITCRASHDVSTAVAWYQQKPGKAPKLLIYSASYRYTGVPSRFSGSGSGTDFTLTISSLQPEDFATYYCQQHYRIPLTFGQGTKLEIK
notes: human kappa (P01834) and human IgG1 (P01857) constant regions
As for B2, the Kd in assay [1] stood at 5.34 nM; in assay [10], 13 nM; in assay [7], 5.34 nM; in [11] it was 5.34 nM; in assay [8], 0.298 nM; in assay [9], 9.89 nM. In addition, the EC50 in assay [2] amounted to 10.3 nM. Further, the kon in assay [3] stood at 15500 M⁻¹ s⁻¹. Besides, in assay [5], the koff was determined as 0.00462 s⁻¹. For the same molecule, the “fold lower binding affinity (ELISA EC50) than 04-0561-f1 and 04-0562-h10” value in [6] was approximately 20 fold. Also, the Antibody Binding Activity by Flow Cytometry (20µg/ml) in [12] amounted to 186000.
